According to article PMC10397247:

Legend:
P3mS = biological target: T1, P3mS; assay: two-hybrid library CCNG1;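 further: natural log of median RNA to DNA barcode read ratio; higher means stronger binding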
T1 chain: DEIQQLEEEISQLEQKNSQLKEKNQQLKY

P8mS = biological target: T2, P8mS; assay: two-hybrid library CCNG1;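 further: natural log of median RNA to DNA barcode read ratio; higher means stronger binding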
T2 chain: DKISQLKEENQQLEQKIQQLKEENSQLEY

P6mS = biological target: T3, P6mS; assay: two-hybrid library CCNG1;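 further: natural log of median RNA to DNA barcode read ratio; higher means stronger binding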
T3 chain: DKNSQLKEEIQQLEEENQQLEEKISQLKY

P5mS = biological target: T4, P5mS; assay: two-hybrid library CCNG1;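 further: natural log of median RNA to DNA barcode read ratio; higher means stronger binding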
T4 chain: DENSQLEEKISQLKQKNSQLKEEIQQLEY

P7mS = biological target: T5, P7mS; assay: two-hybrid library CCNG1
T5 chain: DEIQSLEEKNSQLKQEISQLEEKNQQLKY

P9mS = biological target: T6, P9mS; assay: two-hybrid library CCNG1
T6 chain: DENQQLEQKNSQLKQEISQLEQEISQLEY

4H971-AA = biological target: T7, 4H971-AA; assay: two-hybrid library CCmax; details: mean of both orientations
T7 chain: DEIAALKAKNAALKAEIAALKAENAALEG

4H3102-AA = biological target: T8, 4H3102-AA; assay: two-hybrid library CCmax; details: mean of both orientations
T8 chain: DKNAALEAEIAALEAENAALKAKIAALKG

4H391-AA = biological target: T9, 4H391-AA; assay: two-hybrid library CCmax; details: mean of both orientations
T9 chain: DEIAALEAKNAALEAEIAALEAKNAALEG

4H1391-AA = biological target: T10, 4H1391-AA; assay: two-hybrid library CCmax; details: mean of both orientations
T10 chain: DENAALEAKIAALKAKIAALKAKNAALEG

4H428-AA = biological target: T11, 4H428-AA; assay: two-hybrid library CCmax; details: mean of both orientations
T11 chain: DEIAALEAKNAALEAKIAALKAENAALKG

4H2248-AA = biological target: T12, 4H2248-AA; assay: two-hybrid library CCmax; details: mean of both orientations
T12 chain: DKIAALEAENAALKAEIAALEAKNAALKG

4H146-AA = biological target: T13, 4H146-AA; assay: two-hybrid library CCmax; details: mean of both orientations
T13 chain: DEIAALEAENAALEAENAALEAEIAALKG

4H2713-AA = biological target: T14, 4H2713-AA; assay: two-hybrid library CCmax; details: mean of both orientations
T14 chain: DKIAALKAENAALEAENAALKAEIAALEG

4H1348-AA = biological target: T15, 4H1348-AA; assay: two-hybrid library CCmax; details: mean of both orientations
T15 chain: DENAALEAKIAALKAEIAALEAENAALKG

4H3591-AA = biological target: T16, 4H3591-AA; assay: two-hybrid library CCmax
T16 chain: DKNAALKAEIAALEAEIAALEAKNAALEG

4H2283-AA = biological target: T17, 4H2283-AA; assay: two-hybrid library CCmax; details: mean of both orientations
T17 chain: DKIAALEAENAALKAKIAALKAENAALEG

4H497-AA = biological target: T18, 4H497-AA; assay: two-hybrid library CCmax; details: mean of both orientations
T18 chain: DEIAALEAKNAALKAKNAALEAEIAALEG

4H189-AA = biological target: T19, 4H189-AA; assay: two-hybrid library CCmax; details: mean of both orientations
T19 chain: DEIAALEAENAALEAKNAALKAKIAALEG

4H1109-AA = biological target: T20, 4H1109-AA; assay: two-hybrid library CCmax
T20 chain: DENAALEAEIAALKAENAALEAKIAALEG

4H3939-AA = biological target: T21, 4H3939-AA; assay: two-hybrid library CCmax; details: mean of both orientations
T21 chain: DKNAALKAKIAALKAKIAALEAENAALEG

4H3066-AA = biological target: T22, 4H3066-AA; assay: two-hybrid library CCmax; details: mean of both orientations
T22 chain: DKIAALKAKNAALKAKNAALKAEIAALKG

4H1809-AA = biological target: T23, 4H1809-AA; assay: two-hybrid library CCmax; details: mean of both orientations
T23 chain: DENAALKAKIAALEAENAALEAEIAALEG

4H2742-AA = biological target: T24, 4H2742-AA; assay: two-hybrid library CCmax; details: mean of both orientations
T24 chain: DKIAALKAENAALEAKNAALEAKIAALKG

4H1146-AA = biological target: T25, 4H1146-AA; assay: two-hybrid library CCmax; details: mean of both orientations
T25 chain: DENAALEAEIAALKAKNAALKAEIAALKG

4H3446-AA = biological target: T26, 4H3446-AA; assay: two-hybrid library CCmax; details: mean of both orientations
T26 chain: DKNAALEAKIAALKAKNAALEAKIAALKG

4H2948-AA = biological target: T27, 4H2948-AA; assay: two-hybrid library CCmax; details: mean of both orientations
T27 chain: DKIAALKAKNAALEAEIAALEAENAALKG

4H3666-AA = biological target: T28, 4H3666-AA; assay: two-hybrid library CCmax; details: mean of both orientations
T28 chain: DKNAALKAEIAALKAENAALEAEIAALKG

4H675-AA = biological target: T29, 4H675-AA; assay: two-hybrid library CCmax; details: mean of both orientations
T29 chain: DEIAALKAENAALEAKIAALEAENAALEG

4H3121-AA = biological target: T30, 4H3121-AA; assay: two-hybrid library CCmax; details: mean of both orientations
T30 chain: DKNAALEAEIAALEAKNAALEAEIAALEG

4H3628-AA = biological target: T31, 4H3628-AA; assay: two-hybrid library CCmax; details: mean of both orientations
T31 chain: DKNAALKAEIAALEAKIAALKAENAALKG

4H3417-AA = biological target: T32, 4H3417-AA; assay: two-hybrid library CCmax; details: mean of both orientations
T32 chain: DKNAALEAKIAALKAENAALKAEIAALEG

4H3029-AA = biological target: T33, 4H3029-AA; assay: two-hybrid library CCmax; details: mean of both orientations
T33 chain: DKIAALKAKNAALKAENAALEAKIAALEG

4H1854-AA = biological target: T34, 4H1854-AA; assay: two-hybrid library CCmax; details: mean of both orientations
T34 chain: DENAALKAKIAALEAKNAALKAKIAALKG

4H3920-AA = biological target: T35, 4H3920-AA; assay: two-hybrid library CCmax; details: mean of both orientations
T35 chain: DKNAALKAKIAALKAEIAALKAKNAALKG

4H3709-AA = biological target: T36, 4H3709-AA; assay: two-hybrid library CCmax; details: mean of both orientations
T36 chain: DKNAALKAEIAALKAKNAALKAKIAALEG

4H656-AA = biological target: T37, 4H656-AA; assay: two-hybrid library CCmax; details: mean of both orientations
T37 chain: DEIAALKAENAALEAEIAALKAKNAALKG

4H478-AA = biological target: T38, 4H478-AA; assay: two-hybrid library CCmax; details: mean of both orientations
T38 chain: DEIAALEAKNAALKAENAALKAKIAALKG

4H2991-AA = biological target: T39, 4H2991-AA; assay: two-hybrid library CCmax; details: mean of both orientations
T39 chain: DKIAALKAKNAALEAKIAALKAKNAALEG

Work on DEIQQLEEEISQLEQKNSQLKEKNQQLKY [P3mS] yielded an interaction score (P3mS) of -1.02, an interaction score (P8mS) of -1.66 and an interaction score (P6mS) of -0.88. The interaction score (P5mS) was -0.969, the interaction score (P7mS) was -1.59 and the interaction score (P9mS) was -0.496.

For DENAALEAEIAALKAENAALEAKIAALEG [4H1109-AA], the interaction score (4H971-AA) was 0.0745, the interaction score (4H3102-AA) was 1.35 and the interaction score (4H391-AA) was -1.46. It also gave an interaction score (4H1391-AA) of -1.71, an interaction score (4H428-AA) of -1.21 and an interaction score (4H2248-AA) of -0.482. For the same binder, the interaction score (4H146-AA) was -1.63, the interaction score (4H2713-AA) was -1.49 and the interaction score (4H1348-AA) was -1.31. The interaction score (4H3591-AA) was -1.05, the interaction score (4H2283-AA) was -0.782 and the interaction score (4H497-AA) was -1.77. For the same binder, the interaction score (4H189-AA) was -0.821, the interaction score (4H1109-AA) was 0.484 and the interaction score (4H3939-AA) was -1.76. For the same binder, the interaction score (4H3066-AA) was -0.41, the interaction score (4H1809-AA) was -1.32 and the interaction score (4H2742-AA) was -1.33. It also gave an interaction score (4H1146-AA) of 1.4, an interaction score (4H3446-AA) of -0.106 and an interaction score (4H2948-AA) of -1.16. It also gave an interaction score (4H3666-AA) of 0.67, an interaction score (4H675-AA) of -0.943 and an interaction score (4H3121-AA) of -0.8. For the same binder, the interaction score (4H3628-AA) was -1.06, the interaction score (4H3417-AA) was 0.592 and the interaction score (4H3029-AA) was -0.926. The interaction score (4H1854-AA) was 1.5, the interaction score (4H3920-AA) was -1.35 and the interaction score (4H3709-AA) was 2.13. For the same binder, the interaction score (4H656-AA) was -1.33, the interaction score (4H478-AA) was -1.55 and the interaction score (4H2991-AA) was -0.637.
